Reference: paper PMC5633906, “Introducing site-specific cysteines into nanobodies for mercury labelling allows de novo phasing of their crystal structures” (Acta Crystallographica. Section D, Structural Biology, 2017)
Where a chain is given by its changes, count along the chain named.

B1: native Nb36 nanobody (VHH)
VHH: QVQLVESGGGLVQAGGSLRLSCVVSGSAVSDYAMGWYRQAPGKQRELVAAIYNSGRTNYVDSVKGRFTISKDNAKKTVYLQMNSLKPEDTADYFCNLLGATTMSNAVWGQGTQVTVSS
notes: Selected by phage display from a llama immunised with human C5; construct in pET-22b(+) with an N-terminal PelB signal for secretion into the periplasm; also called nonmodified Nb36; Nb36-Nat1; source: E. coli LOBSTR, purified (Ni Sepharose, Superdex 75); not shown: 6xHis, C-terminal, kept
B2: PCMB-labelled Nb36-C85 (VHH)
VHH: B1 VHH with S84C
notes: as the VHH of m1 with Ser85Cys (position 82b in the Kabat nomenclature); Construct in pET-22b(+) with an N-terminal PelB signal for secretion into the periplasm; In the crystals the benzoate moiety of PCMB was not seen; also called Nb36 Ser85Cys labelled with PCMB; Hg-labelled Nb36-C85; source: E. coli LOBSTR, purified (Ni Sepharose, Superdex 75), labelled with PCMB; not shown: 6xHis, C-terminal, …

Target: T1, human complement component C5 (Homo sapiens, UniProt P01031)
T1 construct: complement C5 beta chain, human, cut product of the C5 precursor; complement C5 alpha chain, human, cut product of the C5 precursor; also called Human C5; C5 antigen; source: purified as described previously (Laursen et al., 2010; Schatz-Jakobsen et al., 2016)
Assay: BLI; Octet RED; histidine-tagged Nbs immobilised on Anti-Penta-HIS biosensors at 2.5 µg/ml; C5 62.5 to 2000 nM in PBS; association 700 s, dissociation 1800 s; global fit
Conditions: both partners purified

Binder	Kd
B1	~86 nM
B2	~37 nM
